# According to the nanobody polyreactivity screen of Harvey et al. (2022):
# Experiment: yeast display, Sf9 membrane polyspecificity reagent, FACS + sequencing; frameworks hold sequencing errors
# In short: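 Nanobodies from a synthetic yeast display library (Saccharomyces cerevisiae BJ5465), induced 36–48 hours with galactose, were stained 1 hour at 4 °C with 10% biotinylated, detergent-solubilized Sf9 membrane reagent, enriched on streptavidin microbeads, then FACS-sorted. Anti-HA (expression) and streptavidin (reagent binding) fluorescence set low and high (top ~1%) gates. Polyreactivity labels come from the gate of origin. Genes were colony-PCR amplified, MiSeq 2 × 250 sequenced and filtered by CDR length.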
row,Sequence,polyreactivity (PSR sort gate)
1,QDQHVESGGGLVQAGGSLRLSCAASGSTIVDYVMGWYRQAPGKERELVAAIRRSDGRTYYADSVKGRFTISRDNAKNTVYLQMNSLKPEDTAVYYCADYAFYRYFFPDVLYDYWGQGTQVTVSS,low polyreactivity
2,QVQLVESGGGLVQAGGSLRLSCAASGFTFNYYAMGWYRQAPGKERELVAAIDSGGNTYYADSVKGRFTISRDNAKNTVYLQMNRLKPEDTAVYYCAAYRDYQYDYWGQGTQVTVSS,low polyreactivity
3,QDQLVESGGGLVQAGGSLRLICASSGSNFESNTMGWYRQAPGKERELLAAINWSGGRTYYADSVKGRFSISRDNAKNTVYLQINSLKPEDTAVYYCATGTYSDYKLGQQLWGRYNYWGQGTQVSVSS,high polyreactivity
4,QVQLVESGGGLVQAGGSLRLSCAASGIIFGRYTMGWYRQAPGKERELVAAITSSGITYYADSVKGRFTISRDNAKNTVYLQMHSLTPEDTAVYYCAADSPVSVTADDGYSGQGTQVTVSS,low polyreactivity
5,QVHLVESGGGLVQAGGSLRLSCAASGIIFGHYDMGWYRQAPGKERELVAAITFTGDSTYADSVKGRFTISRDNAMNTVYLQMNSLKPEDTAVYYCNASVKPSNVWSRGYDYWGQGTQVTVSS,low polyreactivity
6,QVQLVESVGGLVQAGASLRLSCAPSGSTFPVYAMGWYRPAPGKESELVARISSGSSTNYADSVKGRFTISRDNAKITVYLQMNSLKPEDTAVYYCAAQTPRFVWQKGPLDSEDYWGQGTQVTVSS,high polyreactivity
7,QVQLVESGGGLVQAGGSLRLSCAASGRTFRGNAMRWYRQAPGKERELVAAIRWNGGSTYYADSVKGRFTISRDNAKNTVYLQMNSLKPEDSAVYYCAVSYWYSRYDYWGQGTQVTVSS,high polyreactivity
8,QVQLVESGGGLVQAGGSLRLSCAASGSTFTGNAMGWYRQAPGKERELVAAITDRGGSTYADSVKGRFTISRDNAKNTVYLQMNSLKPEDTAVYYCATRRDLHDRYEYDYWGQGTQVTVSS,low polyreactivity
9,QVQLVESGGGLVQAGGSLRLSCAASGSTFYEYAMGWYRQAPGKERELVATINWS,low polyreactivity
10,QVQLVESGGGLDQAGGSRRLSGAASGSTFHGYDKGWYIQAPGKERELVAAITSSGDDTYYADSVKGRFTISRDNAKNTVYLKRNSLKPEDTAVYYCDAEYTEGYTHDYWGQGTKVTVSS,low polyreactivity
11,QVQLVESGGGLVQAGGSLRLSCAASGSIFGGYAMGWYRQAPGKERELVATINLGGGSTYADSVKGRFTISRDNAKNTVYLQMNSLKPEDTAVYYCAADVANSIYDYWGQGTQVTVSS,low polyreactivity
12,QVQLVESGGGLVQAGGSLRLSCAASGSIFVYYAMGWYRQAPGKERELVASISESDGSTSYADSVKGRFTISRDNAKNTVYLQMNSLKPEDTAVYYCAADPYFFWYSPSFDYWGQGSQVTVSS,low polyreactivity
13,QVQLVESGGGLVQAGGSLRLSCAASGFTYYHNAMGWYRQAPGKERELVAAISSSGDSTYYADSVKGRFTISRDNAKNTVYLQMKSLKPEDTAVYYCNDYFYYLSLYYYYWFNYDYWGQGTQVTVSS,low polyreactivity
14,QVQLVESGGGLDQAGGSLRLSCAASGLTFAYYTMGWSRQEPGKERELVADISRSGGSTYYADSVKGRFTISRDNAKNTVYLQMNSLKPEDTAVYYCAAYRYGSRYGYEYWGQGTQVTVSS,high polyreactivity
15,QVQLVESGGGLVQAGGSLRLSCAASGSIFGVYAIGWYRQAPGKERELVATISWSAGSTYYADSVKGRFTISRDNAKNTVYLQMNSLKPEDTAVYYCAAGVRWLGLYDLFTFDYWGQGTQVTVSS,low polyreactivity
16,QVQLVESGGGLVQAGGSLRLSCAASGIIFGYYAMGWSRQEPGKERELVAAINQDGSSTYYADSVKGRFTISRDNAKNTVYLQMNSLKPEVTAVYYCNARGVPRQDARMGYWGEGTQVTVSS,low polyreactivity
17,QVQLVESGGGLVQAGGSLRLSCAASGSISDIYAMGWYRQAPGKERELVASISSGGITNYADSVKGRFTISRDNAKNTVYLQMNSLKPEDTAVYYCAKDRYPISFFYQMEYWGQGTQVTVSS,low polyreactivity
18,QVQLVESGGGLVQAGGSLRLSCAASGSIFYSNAMGWYRQAPGKERELVAAISDGGTSTYYADSVKGRFTISRDNAKNTVYLQMNSLKPEDTAVYYCAAESTLQDWNWYKYYYWGQGTQVTVSS,low polyreactivity
19,QVQLVESGGGLVQAGGSLRLSCAASGRIFSYYTMGWYRQAPGKERELVAAITSGDSTNYADSVKGRFTISRDNAKNTVYLQMNSLKPEDNAVYYCNARYSWWRSRVGSSHRPDGYWGQGTQVTVSS,high polyreactivity
20,QVQLVETGGGLVQAGGSLRLSCAASGYTFRYYAMGWYRQAPGKERELVAAISRRGGSTSYADSVKGRFTISRDNAKNTVYLQMNSLKPEDTAVYYCAVYLGGVSPTYGYWGQGTQVTVSS,high polyreactivity
21,QVQLVESGGGLIQPGGSLRLSCAASGSTFANNAMGWYRQAPGKESELVASISSDGSTNYADSVKGRFTISRDNAKNTVYLQMNSLKPEDTAVYYCAADWYYSADYFHFGYWGQGTQVTVSS,low polyreactivity
22,QVQLVESGGGLVQAGGSLRLSCAASGSTFYYYAMGWYRQAPGKERELVAAITYRGGSTYYADSVKGRFTISRDNAKNTVYLQMNSLKPEDTAVFYCAIVGYKTSSIRYGYWGQGTQVTVSS,high polyreactivity
23,QVQLVESGGGLVQAGVSLRLSCAAAGITFGDYSMGWYRQEPGKEMELVAGIYWSGDGTSYADSVKGRFTISRDNAKNTVYLQMYRLKPEDTAVYYFAAYWYYYLMDYWGQGTQVSVSS,low polyreactivity
24,QVQLVESGGGFVQAGGSLRLSCAASGIIFEYYTMGWYRQAPGKERELVASINYDGDSTYYADSVKGRFTISRDNAKNTVYLQMNSLKPEDTAVYYCSAEFYYVYSSFGHYYWGQGTQVTVSS,low polyreactivity
25,QVQLVESVGGLVQAGGSLRLICAASGSTFTWYAIGWNRQAPGKERELVADITWRDGSTYYADSVKGRFTISRDNAKNTVYLQMNSLKPEDTAVYYCAADYTYWGIFFGYWGQGTQVTVSS,high polyreactivity
26,QVQLVESVGGLVQAGGSLRLSCAASGSIFAIYVMGSYRQAPGKERELVAAISYRSGSTYYADSVKGRFTISRDNAKNTVYLQMNSLKPEDTAVYYCAATSRYYTFGYWGQGTQVTVSS,low polyreactivity
27,QVQLVESGGGVVQAGGSLRLSCAASGLIFYLYAMGWYRQAPGKERELVAGITSGGGSTYYADSVKGRFTISRDNAQNTVYLQMNSLKPEDTAVDDCAARLVLYITVVYEDDYWGQGTQGTVSS,low polyreactivity
28,QVQLVESGGGLVQAGGSLRLSCAASGSIFEVNAMGWYRQAPGKERELVAAISCSGGSTYYADSVKGRFTISRDNAKNTVYLQMNSLKPEDTAVYYCAARPAGYSGRKLYYWGQGTQVTVSS,low polyreactivity
29,QVQLVESGGGLVQAGGSLRLSCAASGSTFFLYAMGWYRQAPGKERELVAAINYIGGTYYADSVKGRFTISRDNAKNTVYLQMNSLKPEDTAVYYCAASYVGTIAGMDYWGQGTQVTVSS,low polyreactivity
30,QVQLVESGGGLVQAGGSLRLSCAASGRTFYSNARGWSRQAPGKERELVARISNGGSTHYADSVKGRFTISRDNAKNTVYLQMNSLKPEDTAVYYCNTDRGHFYTYPYTYYRLGYWGQGTQVTVSS,low polyreactivity
